Measurements as given in the supplement of paper PMC9233669.
Variants at the floor of the assay were thinned out.

How the values were obtained:
biotinyl-Leu-oxazolone = test: self-aminoacylation, catalytic enhancement (BLO) (fold over background); higher = more active; k-Seq, kA / k0A0; sequences stand for … in GGGAAUGGAUCCACAUCUACGAAUUC…UUCACUGCAGACUUGACGAAGCUG
Summary of the method: (§1)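 The uncatalyzed rate is the low-activity peak of a bimodal Gaussian fit, and catalytic enhancement is median kA divided by it. The kA values came from pseudo-first-order fits, with 1000 bootstraps, of per-sequence fraction reacted measured by streptavidin capture, triplicate qPCR and Illumina sequencing. Mutagenized RNA pools with a 21-nt variable region (0.43 μM) were reacted with each biotinyl-aminoacyl-oxazolone at 2–1250 μM in 50 μL HEPES/NaCl/KCl/MgCl2/CaCl2 buffer with 5% acetonitrile, pH 6.9–7.0, for 90 minutes at room temperature.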

biotinyl-Val-oxazolone = test: self-aminoacylation, catalytic enhancement (BVO) (fold over background); higher = more active; k-Seq, kA / k0A0; sequences stand for … in GGGAAUGGAUCCACAUCUACGAAUUC…UUCACUGCAGACUUGACGAAGCUG
Summary of the method: as §1

biotinyl-Met-oxazolone = test: self-aminoacylation, catalytic enhancement (BMO) (fold over background); higher = more active; k-Seq, kA / k0A0; sequences stand for … in GGGAAUGGAUCCACAUCUACGAAUUC…UUCACUGCAGACUUGACGAAGCUG
Summary of the method: as §1

biotinyl-Phe-oxazolone = test: self-aminoacylation, catalytic enhancement (BFO) (fold over background); higher = more active; k-Seq, kA / k0A0; sequences stand for … in GGGAAUGGAUCCACAUCUACGAAUUC…UUCACUGCAGACUUGACGAAGCUG
Summary of the method: as §1

biotinyl-Trp-oxazolone = test: self-aminoacylation, catalytic enhancement (BWO) (fold over background); higher = more active; k-Seq, kA / k0A0; sequences stand for … in GGGAAUGGAUCCACAUCUACGAAUUC…UUCACUGCAGACUUGACGAAGCUG
Summary of the method: as §1

biotinyl-Ile-oxazolone = test: self-aminoacylation, catalytic enhancement (BIO) (fold over background); higher = more active; k-Seq, kA / k0A0; sequences stand for … in GGGAAUGGAUCCACAUCUACGAAUUC…UUCACUGCAGACUUGACGAAGCUG
Summary of the method: as §1

| Sequence | self-aminoacylation (biotinyl-Leu-oxazolone) | self-aminoacylation (biotinyl-Val-oxazolone) | self-aminoacylation (biotinyl-Met-oxazolone) | self-aminoacylation (biotinyl-Phe-oxazolone) | self-aminoacylation (biotinyl-Trp-oxazolone) | self-aminoacylation (biotinyl-Ile-oxazolone) |
| --- | --- | --- | --- | --- | --- | --- |
| AUCACCCUGGUAAUCGAGUGA [Fam2.1 aminoacylation ribozyme variant] | 11.3 | 4.82 | 11.2 | 95.4 | 13.6 | 4.92 |
| AUCACCCUGGUCAUGGAGUGA [Fam2.1 aminoacylation ribozyme variant] | 6.86 | 3.58 | 6.29 | 34 | 6.96 | 3.54 |
| AUCACCCUGGUCAUUGAGUGA [Fam2.1 aminoacylation ribozyme variant] | 13 | 5.8 | 11.3 | 75.1 | 12.9 | 5.63 |
| AUCACCCUGGUUAUCGAGUGA [Fam2.1 aminoacylation ribozyme variant] | 13.5 | 5.37 | 12 | 86.5 | 12.2 | 4.98 |
| AUCAGCCUGGUCAUCGAGUGA [Fam2.1 aminoacylation ribozyme variant] | 4.62 | 3.49 | 4.28 | 32.5 | 6.36 | 3.99 |
| AUCCACCUACGUCAUCGGGUG [Fam2.2 aminoacylation ribozyme variant] | 6.58 | 3.75 | 6.46 | 41.3 | 4.86 | 4.29 |
| AUCCACCUAGGUCAUCGCGUG [Fam2.2 aminoacylation ribozyme variant] | 13.9 | 7.73 | 8.4 | 88.1 | 8.63 | 7.45 |
| AUCCACCUAGGUCAUCGGGUG [Fam2.2 aminoacylation ribozyme variant] | 42 | 17 | 32.1 | 240 | 25 | 18.4 |
| AUCCACCUAGGUCGUCGGGUG [Fam2.2 aminoacylation ribozyme variant] | 3.5 | 2.56 | 2.62 | 9.53 | 2.22 | 2.36 |
| AUCCAGCUAGGUCAUCGGGUG [Fam2.2 aminoacylation ribozyme variant] | 6.74 | 6.15 | 5.63 | 47.5 | 7.36 | 4.76 |
| AUCCGCCUAGGUCAUCGGGUG [Fam2.2 aminoacylation ribozyme variant] | 18.5 | 10.1 | 15.9 | 120 | 16.4 | 10.3 |
| AUGACCCUGAUCAUCGAGUGA [Fam2.1 aminoacylation ribozyme variant] | 5.85 | 2.84 | 5.56 | 19.5 | 6.06 | 2.73 |
| AUGACCCUGGCCAUCGAGUGA [Fam2.1 aminoacylation ribozyme variant] | 7.68 | 3.66 | 5.04 | 32 | 6.4 | 3.03 |
| AUGACCCUGGUCAUAGAGUGA [Fam2.1 aminoacylation ribozyme variant] | 6.95 | 3.59 | 7.12 | 46.6 | 6.89 | 3.35 |
| AUGACCCUGGUCAUCGAGCGA [Fam2.1 aminoacylation ribozyme variant] | 3.09 | 2.31 | 2.99 | 3.71 | 2.48 | 2.2 |
| AUGACCCUGGUCAUCGAGUGA [Fam2.1 aminoacylation ribozyme variant] | 55.8 | 19.3 | 58.9 | 451 | 51.6 | 18.6 |
| AUGACCCUGGUCAUCGAGUGC [Fam2.1 aminoacylation ribozyme variant] | 6.92 | 2.96 | 7.15 | 17.4 | 4 | 2.61 |
| AUGACCCUGGUCAUCGAGUGG [Fam2.1 aminoacylation ribozyme variant] | 31 | 8.22 | 30 | 215 | 20.9 | 7.48 |
| AUGACCCUGGUCAUCGGGUGA [Fam2.1 aminoacylation ribozyme variant] | 99 | 35.1 | 90.6 | 571 | 94.9 | 31.9 |
| AUGACCCUGGUCAUGGAGUGA [Fam2.1 aminoacylation ribozyme variant] | 4.81 | 2.73 | 4.69 | 26.2 | 4.08 | 2.56 |
| AUGACCCUGGUCUUCGAGUGA [Fam2.1 aminoacylation ribozyme variant] | 6.24 | 2.95 | 5.04 | 30.4 | 6.19 | 2.9 |
| AUGACCCUGUUCAUCGAGUGA [Fam2.1 aminoacylation ribozyme variant] | 5.72 | 3.03 | 4.75 | 17.7 | 6.05 | 3.16 |

| Sequence | self-aminoacylation (biotinyl-Leu-oxazolone) | self-aminoacylation (biotinyl-Val-oxazolone) | self-aminoacylation (biotinyl-Met-oxazolone) | self-aminoacylation (biotinyl-Phe-oxazolone) | self-aminoacylation (biotinyl-Trp-oxazolone) | self-aminoacylation (biotinyl-Ile-oxazolone) |
| --- | --- | --- | --- | --- | --- | --- |
| AUGAUCCUGGUCAUCGAGUGA [Fam2.1 aminoacylation ribozyme variant] | 9.67 | 4.44 | 9.84 | 14 | 9.32 | 4.83 |
| AUGCACCUACGUCAUCGGGUG [Fam2.2 aminoacylation ribozyme variant] | 7.54 | 4.21 | 7.02 | 60.7 | 6.56 | 3.57 |
| AUGCACCUAGCUCAUCGGGUG [Fam2.2 aminoacylation ribozyme variant] | 2.11 | 2.4 | 1.57 | 3.64 | 2.72 | 1.62 |
| AUGCACCUAGGUCAUCCGGUG [Fam2.2 aminoacylation ribozyme variant] | 7.51 | 4.06 | 6.24 | 57.6 | 7.68 | 4.42 |
| AUGCACCUAGGUCAUCGGAUG [Fam2.2 aminoacylation ribozyme variant] | 1.11 | 1.23 | 0.919 | 0.614 | 1.25 | 1.26 |
| AUGCACCUAGGUCAUCGGGGG [Fam2.2 aminoacylation ribozyme variant] | 2.64 | 2.33 | 2.72 | 7.48 | 3.3 | 2.4 |
| AUGCACCUAGGUCAUCGGGUA [Fam2.2 aminoacylation ribozyme variant] | 12.9 | 5.82 | 10.2 | 42 | 9.92 | 6.6 |
| AUGCACCUAGGUCAUCGGGUG [Fam2.2 aminoacylation ribozyme variant] | 6.25 | 4.11 | 5.65 | 30.1 | 6.01 | 4.06 |
| AUGCACCUAGGUCAUCUGGUG [Fam2.2 aminoacylation ribozyme variant] | 2.34 | 1.69 | 1.95 | 10.8 | 2.17 | 1.67 |
| AUGCACCUAGGUCAUGGGGUG [Fam2.2 aminoacylation ribozyme variant] | 4.53 | 3.42 | 4.33 | 31.3 | 5.66 | 3.85 |
| AUGCACCUUGGUCAUCGGGUG [Fam2.2 aminoacylation ribozyme variant] | 9.83 | 5.41 | 7.63 | 65.4 | 8.29 | 5.37 |
| AUGCGCCUAGGUCAUCGGGUG [Fam2.2 aminoacylation ribozyme variant] | 10.7 | 6.24 | 9.32 | 60.9 | 9.8 | 6.21 |
| AUGUUUGCUAAUAAUCGCAAG [Fam3.1 aminoacylation ribozyme variant] | 1.06 | 1.35 | 0.97 | 1.34 | 1.04 | 1.38 |
| AUGUUUGCUAAUACUCGCAAG [Fam3.1 aminoacylation ribozyme variant] | 0.966 | 0.908 | 0.735 | 0.958 | 0.728 | 0.985 |
| AUGUUUGCUAAUAGACGCAAG [Fam3.1 aminoacylation ribozyme variant] | 0.564 | 0.736 | 0.611 | 0.828 | 0.508 | 0.691 |
| AUGUUUGCUAAUAGUAGCAAG [Fam3.1 aminoacylation ribozyme variant] | 0.912 | 1.36 | 1.34 | 1.67 | 0.911 | 1.29 |
| AUGUUUGCUAAUAGUCCCAAG [Fam3.1 aminoacylation ribozyme variant] | 0.966 | 1.11 | 0.965 | 2.79 | 1.25 | 1.08 |
| AUGUUUGCUAAUAGUCGCAAA [Fam3.1 aminoacylation ribozyme variant] | 1.54 | 1.59 | 1.75 | 4.87 | 2.71 | 2.2 |
| AUGUUUGCUAAUAGUCUCAAG [Fam3.1 aminoacylation ribozyme variant] | 1.01 | 1.04 | 1.12 | 5.12 | 1.43 | 1.27 |
| AUUAACCAGGUCAUCGAGUGA [Fam2.1 aminoacylation ribozyme variant] | 5.32 | 2.8 | 5.17 | 22.2 | 6.86 | 3.17 |
| AUUAACCUAGCUCAUCGGGUG [Fam2.2 aminoacylation ribozyme variant] | 1.65 | 1.79 | 1.96 | 8.47 | 1.86 | 1.79 |
